Consider two molecules from paper PMC4516285 (Biochemistry, 2015).

One may read the Kd as the free concentration of one partner at which half of the binding sites on the other are occupied at equilibrium, for simple one-to-one binding.

The target in test [1] is FliM 1-16 (Escherichia coli) (UniProt P06974). The note with it: cited from earlier work.
Test [2] has as its target T1, wild type Escherichia coli CheY (E. coli, UniProt P0AE67 2-129).
T1 sequence: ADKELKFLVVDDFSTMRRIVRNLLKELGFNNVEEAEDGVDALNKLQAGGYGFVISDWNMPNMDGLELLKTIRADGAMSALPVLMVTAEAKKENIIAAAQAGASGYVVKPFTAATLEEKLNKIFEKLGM
The test can be described thus: other fluorescence titration.

Consider CheY (from UniProt P0AE67), for which the Kd in test [1] is 280 µM.

B1: FliM_(1–16) peptide (amino terminal 16 residues of E. coli FliM) (peptide)
peptide: MGDSILSQAEIDALLN
Turning to B1, the affinity in test [2], expressed as Kd, was 370 µM.
